In experiment [1] the target is T1, full-length His-tagged IL-17F protein (ab167911, Abcam) (human, UniProt Q96PD4 31-163).
T1 construct: Bought protein, called 'full-length'; also called human IL-17F protein; recombinant human IL-17F protein; not shown: His tag of the bought protein
T1 chain: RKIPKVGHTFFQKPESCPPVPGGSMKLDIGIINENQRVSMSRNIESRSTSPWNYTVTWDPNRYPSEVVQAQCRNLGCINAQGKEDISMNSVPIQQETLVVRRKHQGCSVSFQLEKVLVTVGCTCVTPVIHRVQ
The experiment can be described thus: fluorescence polarization in solution.

For experiment [2], the target named is T1, full-length His-tagged IL-17F protein …. The experiment is described as follows: comparison of affinities for His-tagged IL-17F.
The target is the same in experiment [3]. The experiment can be described thus: comparison of affinities for His-tagged IL-17F; reference the other biligands (PEG1, PEG2, PEG4, PEG5).
The target is the same in experiment [4]. The experiment is described as follows: point ELISA against recombinant human IL-17F and IL-17A.
Experiment [5] has the same target. The experiment is described as follows: binding to His-tagged IL-17F human recombinant protein; method not named there (ELISA implied).
For experiment [6] the target is unchanged. The experiment is described as follows: fluorescence polarization in solution: IL-17F titrated against the 5-FITC-tagged macrocycle.
For experiment [7], the target named is T2, Plasmodium falciparum Histidine Rich Protein-2 (Pf.HRP-2) (Plasmodium falciparum).
T2 chain: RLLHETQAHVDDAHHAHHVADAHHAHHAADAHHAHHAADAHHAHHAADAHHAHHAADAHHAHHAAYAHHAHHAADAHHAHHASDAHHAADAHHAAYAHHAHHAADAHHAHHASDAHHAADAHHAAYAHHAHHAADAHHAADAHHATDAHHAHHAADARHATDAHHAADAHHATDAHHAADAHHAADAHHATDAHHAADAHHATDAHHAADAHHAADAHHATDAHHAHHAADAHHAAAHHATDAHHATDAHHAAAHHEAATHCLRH
The experiment can be described thus: method and form of the target not stated.

In experiment [8] the target is T2, Plasmodium falciparum Histidine Rich …. The experiment can be described thus: comparison of EC50 values.
In experiment [9] the target is T1, full-length His-tagged IL-17F protein …. The experiment can be described thus: point ELISA: ligand on NeutrAvidin plate, 100 nM His-tagged IL-17F against His-tagged IL-17A as reference.
Experiment [10] has the same target. The experiment is described as follows: sandwich ELISA: biotinylated ligand on NeutrAvidin plate, His-tagged IL-17F titrated, anti-His-AP detection.
Experiment [11] has the same target. The experiment can be described thus: method not named there (same number as the ELISA EC50).
Experiment [12] shares this target. The experiment is described as follows: surface-immobilized macrocycle contacted with IL-17F, IL-17A or no protein.
Experiment [13] concerns the target T3, His6-PEG3-FFQKPESSPVSPGPG (not fully specified (N-terminus); printed as His6-PEG3-FFQKPESSPVSPGPG).
T3 construct: Chemically synthesized
T3 peptide: FFQKPESSPVSPGPG
The experiment is described as follows: point ELISA: ligand on NeutrAvidin plate, 2 µM His-tagged epitope peptide, anti-His-AP detection.

Experiment [14] deals with T4, His6-PEG3-FFQKPESSPPVPGGS (human, not fully specified (N-terminus); printed as His6-PEG3-FFQKPESSPPVPGGS).
T4 construct: Chemically synthesized
T4 peptide: FFQKPESSPPVPGGS
The experiment can be described thus: point ELISA with His-tagged epitope peptides scrambled at the N- or C-terminus.

Experiment [15] has as its target T1, full-length His-tagged IL-17F protein …. The experiment is described as follows: point ELISA: ligand on NeutrAvidin plate, His-tagged IL-17F against His-tagged IL-17A as reference.
Experiment [16] has as its target T5, His6-PEG3-SQFEKFPSPPVPGGS (not fully specified (N-terminus); printed as His6-PEG3-SQFEKFPSPPVPGGS).
T5 construct: Chemically synthesized
T5 peptide: SQFEKFPSPPVPGGS
The experiment can be described thus: point ELISA: ligand on NeutrAvidin plate, His-tagged epitope peptide, anti-His-AP detection.

For experiment [17], the target named is T4, His6-PEG3-FFQKPESSPPVPGGS
The experiment is described as follows: point ELISA: ligand on NeutrAvidin plate, 2 µM His-tagged epitope peptide, anti-His-AP detection.

Bridge positions count the residues as written; N and C are the ends. Square brackets hold non-standard residues; d marks the D form. Primed or numbered codes have the meaning given here. Ends that are not written are not given here. * marks the point of attachment. Biotin = O=C1N[C@H]2[C@H](CS[C@H]2CCCCC(=O)*)N1; Lys(N3) = [N-]=[N+]=NCCCC[C@H](N)C(=O)O; PEG3′ = PEGylated amino acid linker; Biotin′ = not defined here; Pra = C#CC[C@H](N)C(=O)O

B1: Biotin-PEG3-Cy(RSYNK)(SEQ ID NO:28)-PEG3-Cy(RRATS) (SEQ ID NO:9) (peptide)
peptide 1: {Biotin-PEG3′}-[Pra]RSYNK
peptide 2: [Pra]RRATS[Lys(N3)]
modifications: not fully specified (C-terminus); also: triazole to a chain's N/C-terminus, triazole to a chain's N/C-terminus
notes: One covalent molecule: the two macrocycles are joined by a single PEGylated amino acid (PEG3); also called Bi-LF; Cy(RSYNK)-PEG3-Cy(RRATS)
With B1, the equilibrium dissociation constant (Kd) in experiment [1] stood at 0.000252 µM; in experiment [5], 0.000246 µM. Besides, the “fold improvement in affinity relative to the individual PCC macrocyclic ligands” value in experiment [2] is above 100 fold. Moreover, the “times stronger than the other biligands” value in experiment [3] was at least 16 fold. The “selectivity for IL-17F (against IL-17A)” value in [4] was 4 ratio.

B2: fluorescein 5-isothiocyanate (5-FITC)-tagged LF1 (peptide)
peptide: [Pra]RRATS[Lys(N3)]
modifications: triazole N-C; numbers in words are those of the source; also: 5-FITC tag, position not given here
notes: Form of LF1 used in fluorescence polarization; also called LF1 (5-FITC-tagged)
In [6], B2 showed a Kd of 0.05 µM.

B3: cy(YKYYR)(SEQ ID NO:29)-linker-cy(GWNVDL) (SEQ ID NO:30) (peptide)
peptide 1: YKYYR
peptide 2: GWNVDL
modifications: not fully specified
notes: One covalent molecule; also called the resultant biligand
Take B3: in experiment [7], the EC50 was 0.00054 µM. The “fold improvement over the better of the two ligand components” value in [8] came to 100 fold.

B4: fluorescein 5-isothiocyanate (5-FITC)-tagged LF2 (peptide)
peptide: [Pra]RSYNK[Lys(N3)]
modifications: triazole N-C; numbers in words are those of the source; also: 5-FITC tag, position not given here
notes: Form of LF2 used in fluorescence polarization; also called LF2 (5-FITC-tagged)
For B4, in experiment [6], the Kd was 0.028 µM.

B5: Biotin-PEG3-Cy(KKGWP) (SEQ ID NO:23) (peptide)
peptide: KKGWP
modifications: not fully specified; cyclised by a triazole between flanking N-terminal Pra (L-propargylglycine) and C-terminal Az4 (L-azidolysine); N-terminal Biotin-PEG3 label
notes: also called PEG3-biotin-modified Cy(KKGWP)
Consider B5, for which the “selectivity for IL-17F (against IL-17A)” value in experiment [9] amounted to 4 ratio. Also, it took 0.024 µM to reach a half-maximal effect in experiment [10] (EC50).

B6: Biotin-PEG3-Cy(RSYNK) (SEQ ID NO:28) (peptide)
peptide: RSYNK
modifications: not fully specified; cyclised by a triazole between flanking N-terminal Pra (L-propargylglycine) and C-terminal Az4 (L-azidolysine); Biotin-PEG3 label
notes: also called LF2; PEG3-biotin-modified Cy(RSYNK)
On to B6, for which the “selectivity for IL-17F (against IL-17A)” value in [9] came out at 4 ratio. Further, in [11], the Kd was determined as 0.015 µM. Also, in experiment [10], a half-maximal response (EC50) required 0.015 µM.

Regarding YKYYR (also: cyclic, mode of cyclisation not given here, also called cyclic YKYYR) [Cy(YKYYR) (SEQ ID NO:29)], in experiment [7], the EC50 worked out at 0.22 µM.

B7: Cy(RRATS)(SEQ ID NO:9)-PEG3-biotin (peptide)
peptide: [Pra]RRATS[Lys(N3)]-{PEG3′-Biotin′}
modifications: triazole N-C
notes: also called LF1; PEG3-biotin-modified Cy(RRATS)
For B7, the “selectivity for IL-17F (against IL-17A)” value came to 10 ratio in experiment [12] and 2 ratio in experiment [15]. The binding result in [13] is “binds”; in experiment [14], “binds”; in experiment [16], “no binding (tested: 2 µM epitope)”. This molecule also had an EC50 in experiment [10] of 0.066 µM.

B8: Cy(RRAQS)(SEQ ID NO:10)-PEG3-biotin (peptide)
peptide: [Pra]RRAQS[Lys(N3)]-{PEG3′-Biotin′}
modifications: triazole N-C
notes: also called PEG3-biotin-modified Cy(RRAQS)
Turning to B8, the binding result in [13] is given as “binds”; in experiment [17] it was “binds”; in [16], “no binding (tested: 2 µM epitope)”. Also, the “selectivity for IL-17F (against IL-17A)” value in [15] was determined as 2 ratio. For the same molecule, a half-maximal response in experiment [10] (EC50) required 0.052 µM.

B9: linked biligand of two Cy(YKYYR) (SEQ ID NO:29) PCCs with about a 1.5 nm long linker (peptide)
peptide: YKYYR
modifications: also: cyclic peptide (Cy), closure not given here, dimer: two macrocycles joined by a linker of about 1.5 nm
notes: also called the resultant linked biligand
Molecule B9 came in with an EC50 in experiment [7] of 0.0208 µM.

The molecule GWNVDL (also: cyclic peptide, closure not given here, also called cy(GWNVDL)) [cyclic PCC with variable sequence GWNVDL (SEQ ID NO:30)] displayed an EC50 in experiment [7] of 0.05 µM. Compared with the last molecule, the EC50 is about 2.4-fold higher.

Source of the values: patent US20180364253A1 (published 2018).
